Results reported in patent publication US20120329707A1 (INDIANA UNIVERSITY RESEARCH AND TECHNOLOGY, published 2012).
Numbered stars: 1 amine (or outer) side, 2 acyl side, 3 side chain; on linkers, the order of the positions; unused ones are H or OH. Square brackets hold non-standard residues; d marks the D form. Side chains are listed from the residue outwards. Ends that are not written are not given here. * marks the point of attachment. γGlu = O=C(O)[C@H](CCC(=O)[*:2])N[*:1]; Desaminohistidyl = O=C(CCc1c[nH]cn1)*; Palmitoyl = CCCCCCCCCCCCCCCC(=O)*; Aib = CC(C)(N)C(=O)O

How the values were obtained:
Test in all cases: cell-based or functional assay
glucagon receptor = target: glucagon receptor
GIP receptor = target: T1, GIP receptor
T1 sequence (P48546 whole entry, species assumed, looked up): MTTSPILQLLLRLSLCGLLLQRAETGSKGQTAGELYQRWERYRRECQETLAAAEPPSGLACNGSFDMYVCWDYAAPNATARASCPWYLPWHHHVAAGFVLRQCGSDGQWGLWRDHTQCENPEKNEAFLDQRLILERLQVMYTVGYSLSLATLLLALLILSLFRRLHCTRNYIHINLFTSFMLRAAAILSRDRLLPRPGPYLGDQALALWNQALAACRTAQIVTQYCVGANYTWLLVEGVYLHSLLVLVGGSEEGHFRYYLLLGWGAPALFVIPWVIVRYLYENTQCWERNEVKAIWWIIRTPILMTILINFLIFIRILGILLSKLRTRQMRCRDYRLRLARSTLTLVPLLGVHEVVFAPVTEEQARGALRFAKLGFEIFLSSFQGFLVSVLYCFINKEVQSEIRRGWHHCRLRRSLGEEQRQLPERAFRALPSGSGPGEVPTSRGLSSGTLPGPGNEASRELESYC

GLP-1 receptor = target: GLP-1 receptor

B1: peptide of SEQ ID NO: 21 (peptide)
peptide: Ac-H[dS]QGTFTSDK([γGlu-Palmitoyl])SKYLDERAAQDFVQWLLDT-NH2
EC50 (nM) at glucagon receptor (glucagon receptor): 0.005 nM | EC50 (nM) at GIP receptor (GIP receptor): 4.5 nM | EC50 (nM) at GLP-1 receptor (GLP-1 receptor): 0.009 nM

B2: peptide of SEQ ID NO: 61 (peptide)
peptide: HXQGTFTSDKSKYLDERAAQDFVQWLMDT
modifications: aib at 2; Lys 10 with γEγEC16; C-terminal amide
EC50 (nM) at glucagon receptor (glucagon receptor): 0.009 nM | EC50 (nM) at GIP receptor (GIP receptor): 0.676 nM | EC50 (nM) at GLP-1 receptor (GLP-1 receptor): 0.004 nM

B3: peptide of SEQ ID NO: 24 (peptide)
peptide: H[Aib]QGTFTSDK([γGlu-γGlu-Palmitoyl])SKYLD[Aib]RAAQDFVQWLKDGRG-NH2
modifications: N-terminus assumed
SMILES: CCCCCCCCCCCCCCCC(=O)N[C@@H](CCC(=O)N[C@@H](CCC(=O)NCCCC[C@H](NC(=O)[C@H](CC(=O)O)NC(=O)[C@H](CO)NC(=O)[C@@H](NC(=O)[C@H](Cc1ccccc1)NC(=O)[C@@H](NC(=O)CNC(=O)[C@H](CCC(N)=O)NC(=O)C(C)(C)NC(=O)[C@@H](N)Cc1c[nH]cn1)[C@@H](C)O)[C@@H](C)O)C(=O)N[C@@H](CO)C(=O)N[C@@H](CCCCN)C(=O)N[C@@H](Cc1ccc(O)cc1)C(=O)N[C@@H](CC(C)C)C(=O)N[C@@H](CC(=O)O)C(=O)NC(C)(C)C(=O)N[C@@H](CCCNC(=N)N)C(=O)N[C@@H](C)C(=O)N[C@@H](C)C(=O)N[C@@H](CCC(N)=O)C(=O)N[C@@H](CC(=O)O)C(=O)N[C@@H](Cc1ccccc1)C(=O)N[C@H](C(=O)N[C@@H](CCC(N)=O)C(=O)N[C@@H](Cc1c[nH]c2ccccc12)C(=O)N[C@@H](CC(C)C)C(=O)N[C@@H](CCCCN)C(=O)N[C@@H](CC(=O)O)C(=O)NCC(=O)N[C@@H](CCCNC(=N)N)C(=O)NCC(N)=O)C(C)C)C(=O)O)C(=O)O
EC50 (nM) at glucagon receptor (glucagon receptor): 0.021 nM | EC50 (nM) at GIP receptor (GIP receptor): 1.46 nM | EC50 (nM) at GLP-1 receptor (GLP-1 receptor): 0.004 nM

B4: peptide of SEQ ID NO: 22 (peptide)
peptide: H[Aib]QGTFTSDK([γGlu-γGlu-Palmitoyl])SKYLD[Aib]RAAQDFVQWLMDGRG-NH2
modifications: N-terminus assumed
SMILES: CCCCCCCCCCCCCCCC(=O)N[C@@H](CCC(=O)N[C@@H](CCC(=O)NCCCC[C@H](NC(=O)[C@H](CC(=O)O)NC(=O)[C@H](CO)NC(=O)[C@@H](NC(=O)[C@H](Cc1ccccc1)NC(=O)[C@@H](NC(=O)CNC(=O)[C@H](CCC(N)=O)NC(=O)C(C)(C)NC(=O)[C@@H](N)Cc1c[nH]cn1)[C@@H](C)O)[C@@H](C)O)C(=O)N[C@@H](CO)C(=O)N[C@@H](CCCCN)C(=O)N[C@@H](Cc1ccc(O)cc1)C(=O)N[C@@H](CC(C)C)C(=O)N[C@@H](CC(=O)O)C(=O)NC(C)(C)C(=O)N[C@@H](CCCNC(=N)N)C(=O)N[C@@H](C)C(=O)N[C@@H](C)C(=O)N[C@@H](CCC(N)=O)C(=O)N[C@@H](CC(=O)O)C(=O)N[C@@H](Cc1ccccc1)C(=O)N[C@H](C(=O)N[C@@H](CCC(N)=O)C(=O)N[C@@H](Cc1c[nH]c2ccccc12)C(=O)N[C@@H](CC(C)C)C(=O)N[C@@H](CCSC)C(=O)N[C@@H](CC(=O)O)C(=O)NCC(=O)N[C@@H](CCCNC(=N)N)C(=O)NCC(N)=O)C(C)C)C(=O)O)C(=O)O
EC50 (nM) at glucagon receptor (glucagon receptor): 0.005 nM | EC50 (nM) at GIP receptor (GIP receptor): 2.37 nM | EC50 (nM) at GLP-1 receptor (GLP-1 receptor): 0.002 nM

B5: peptide of SEQ ID NO: 20 (peptide)
peptide: [Desaminohistidyl][dS]QGTFTSDK([γGlu-Palmitoyl])SKYLDERAAQDFVQWLLDT-NH2
EC50 (nM) at glucagon receptor (glucagon receptor): 0.006 nM | EC50 (nM) at GIP receptor (GIP receptor): 1.38 nM | EC50 (nM) at GLP-1 receptor (GLP-1 receptor): 0.004 nM

B6: peptide of SEQ ID NO: 60 (peptide)
peptide: H[Aib]QGTFTSDK([γGlu-Palmitoyl])SKYLD[Aib]RAAQDFVQWLMKTK[dE]-OH
EC50 (nM) at glucagon receptor (glucagon receptor): 4.6 nM | EC50 (nM) at GIP receptor (GIP receptor): 147 nM | EC50 (nM) at GLP-1 receptor (GLP-1 receptor): 0.033 nM

B7: peptide of SEQ ID NO: 23 (peptide)
peptide: H[Aib]QGTFTSDK([γGlu-γGlu-Palmitoyl])SKYLD[Aib]RAAQDFVQWLMKGRG-NH2
modifications: N-terminus assumed
SMILES: CCCCCCCCCCCCCCCC(=O)N[C@@H](CCC(=O)N[C@@H](CCC(=O)NCCCC[C@H](NC(=O)[C@H](CC(=O)O)NC(=O)[C@H](CO)NC(=O)[C@@H](NC(=O)[C@H](Cc1ccccc1)NC(=O)[C@@H](NC(=O)CNC(=O)[C@H](CCC(N)=O)NC(=O)C(C)(C)NC(=O)[C@@H](N)Cc1c[nH]cn1)[C@@H](C)O)[C@@H](C)O)C(=O)N[C@@H](CO)C(=O)N[C@@H](CCCCN)C(=O)N[C@@H](Cc1ccc(O)cc1)C(=O)N[C@@H](CC(C)C)C(=O)N[C@@H](CC(=O)O)C(=O)NC(C)(C)C(=O)N[C@@H](CCCNC(=N)N)C(=O)N[C@@H](C)C(=O)N[C@@H](C)C(=O)N[C@@H](CCC(N)=O)C(=O)N[C@@H](CC(=O)O)C(=O)N[C@@H](Cc1ccccc1)C(=O)N[C@H](C(=O)N[C@@H](CCC(N)=O)C(=O)N[C@@H](Cc1c[nH]c2ccccc12)C(=O)N[C@@H](CC(C)C)C(=O)N[C@@H](CCSC)C(=O)N[C@@H](CCCCN)C(=O)NCC(=O)N[C@@H](CCCNC(=N)N)C(=O)NCC(N)=O)C(C)C)C(=O)O)C(=O)O
EC50 (nM) at glucagon receptor (glucagon receptor): 0.023 nM | EC50 (nM) at GIP receptor (GIP receptor): 1.58 nM | EC50 (nM) at GLP-1 receptor (GLP-1 receptor): 0.004 nM

B8: peptide of SEQ ID NO: 58 (peptide)
peptide: H[Aib]QGTFTSDK(Palmitoyl)SKYLDSRRA[Aib]DFVQWLMNT-NH2
modifications: N-terminus assumed
SMILES: CCCCCCCCCCCCCCCC(=O)NCCCC[C@H](NC(=O)[C@H](CC(=O)O)NC(=O)[C@H](CO)NC(=O)[C@@H](NC(=O)[C@H](Cc1ccccc1)NC(=O)[C@@H](NC(=O)CNC(=O)[C@H](CCC(N)=O)NC(=O)C(C)(C)NC(=O)[C@@H](N)Cc1c[nH]cn1)[C@@H](C)O)[C@@H](C)O)C(=O)N[C@@H](CO)C(=O)N[C@@H](CCCCN)C(=O)N[C@@H](Cc1ccc(O)cc1)C(=O)N[C@@H](CC(C)C)C(=O)N[C@@H](CC(=O)O)C(=O)N[C@@H](CO)C(=O)N[C@@H](CCCNC(=N)N)C(=O)N[C@@H](CCCNC(=N)N)C(=O)N[C@@H](C)C(=O)NC(C)(C)C(=O)N[C@@H](CC(=O)O)C(=O)N[C@@H](Cc1ccccc1)C(=O)N[C@H](C(=O)N[C@@H](CCC(N)=O)C(=O)N[C@@H](Cc1c[nH]c2ccccc12)C(=O)N[C@@H](CC(C)C)C(=O)N[C@@H](CCSC)C(=O)N[C@@H](CC(N)=O)C(=O)N[C@H](C(N)=O)[C@@H](C)O)C(C)C
EC50 (nM) at glucagon receptor (glucagon receptor): 0.09 nM | EC50 (nM) at GIP receptor (GIP receptor): 35.7 nM | EC50 (nM) at GLP-1 receptor (GLP-1 receptor): 0.025 nM

B9: peptide of SEQ ID NO: 19 (peptide)
peptide: H[dS]QGTFTSDK([γGlu-Palmitoyl])SKYLDERAAQDFVQWLLDGRG-NH2
EC50 (nM) at glucagon receptor (glucagon receptor): 0.004 nM | EC50 (nM) at GIP receptor (GIP receptor): 0.812 nM | EC50 (nM) at GLP-1 receptor (GLP-1 receptor): 0.002 nM

B10: peptide of SEQ ID NO: 25 (peptide)
peptide: H[Aib]QGTFTSDK([γGlu-γGlu-Palmitoyl])SKYLD[Aib]RAAQDFVQWLKDGRP-NH2
modifications: N-terminus assumed
SMILES: CCCCCCCCCCCCCCCC(=O)N[C@@H](CCC(=O)N[C@@H](CCC(=O)NCCCC[C@H](NC(=O)[C@H](CC(=O)O)NC(=O)[C@H](CO)NC(=O)[C@@H](NC(=O)[C@H](Cc1ccccc1)NC(=O)[C@@H](NC(=O)CNC(=O)[C@H](CCC(N)=O)NC(=O)C(C)(C)NC(=O)[C@@H](N)Cc1c[nH]cn1)[C@@H](C)O)[C@@H](C)O)C(=O)N[C@@H](CO)C(=O)N[C@@H](CCCCN)C(=O)N[C@@H](Cc1ccc(O)cc1)C(=O)N[C@@H](CC(C)C)C(=O)N[C@@H](CC(=O)O)C(=O)NC(C)(C)C(=O)N[C@@H](CCCNC(=N)N)C(=O)N[C@@H](C)C(=O)N[C@@H](C)C(=O)N[C@@H](CCC(N)=O)C(=O)N[C@@H](CC(=O)O)C(=O)N[C@@H](Cc1ccccc1)C(=O)N[C@H](C(=O)N[C@@H](CCC(N)=O)C(=O)N[C@@H](Cc1c[nH]c2ccccc12)C(=O)N[C@@H](CC(C)C)C(=O)N[C@@H](CCCCN)C(=O)N[C@@H](CC(=O)O)C(=O)NCC(=O)N[C@@H](CCCNC(=N)N)C(=O)N1CCC[C@H]1C(N)=O)C(C)C)C(=O)O)C(=O)O
EC50 (nM) at glucagon receptor (glucagon receptor): 0.035 nM | EC50 (nM) at GIP receptor (GIP receptor): 2.36 nM | EC50 (nM) at GLP-1 receptor (GLP-1 receptor): 0.003 nM

B11: peptide of SEQ ID NO: 59 (peptide)
peptide: H[Aib]QGTFTSDK(Palmitoyl)SKYLDERRA[Aib]DFVQWLMNT-NH2
modifications: N-terminus assumed
SMILES: CCCCCCCCCCCCCCCC(=O)NCCCC[C@H](NC(=O)[C@H](CC(=O)O)NC(=O)[C@H](CO)NC(=O)[C@@H](NC(=O)[C@H](Cc1ccccc1)NC(=O)[C@@H](NC(=O)CNC(=O)[C@H](CCC(N)=O)NC(=O)C(C)(C)NC(=O)[C@@H](N)Cc1c[nH]cn1)[C@@H](C)O)[C@@H](C)O)C(=O)N[C@@H](CO)C(=O)N[C@@H](CCCCN)C(=O)N[C@@H](Cc1ccc(O)cc1)C(=O)N[C@@H](CC(C)C)C(=O)N[C@@H](CC(=O)O)C(=O)N[C@@H](CCC(=O)O)C(=O)N[C@@H](CCCNC(=N)N)C(=O)N[C@@H](CCCNC(=N)N)C(=O)N[C@@H](C)C(=O)NC(C)(C)C(=O)N[C@@H](CC(=O)O)C(=O)N[C@@H](Cc1ccccc1)C(=O)N[C@H](C(=O)N[C@@H](CCC(N)=O)C(=O)N[C@@H](Cc1c[nH]c2ccccc12)C(=O)N[C@@H](CC(C)C)C(=O)N[C@@H](CCSC)C(=O)N[C@@H](CC(N)=O)C(=O)N[C@H](C(N)=O)[C@@H](C)O)C(C)C
EC50 (nM) at glucagon receptor (glucagon receptor): 0.051 nM | EC50 (nM) at GIP receptor (GIP receptor): 7.48 nM | EC50 (nM) at GLP-1 receptor (GLP-1 receptor): 0.01 nM
